According to patent US20160058848A1:
Residue numbers refer to the chain shown, from its start.

Columns and labels:
[1] = target: T1, human corin mutant R801A, Q9Y5Q5
T1 chain: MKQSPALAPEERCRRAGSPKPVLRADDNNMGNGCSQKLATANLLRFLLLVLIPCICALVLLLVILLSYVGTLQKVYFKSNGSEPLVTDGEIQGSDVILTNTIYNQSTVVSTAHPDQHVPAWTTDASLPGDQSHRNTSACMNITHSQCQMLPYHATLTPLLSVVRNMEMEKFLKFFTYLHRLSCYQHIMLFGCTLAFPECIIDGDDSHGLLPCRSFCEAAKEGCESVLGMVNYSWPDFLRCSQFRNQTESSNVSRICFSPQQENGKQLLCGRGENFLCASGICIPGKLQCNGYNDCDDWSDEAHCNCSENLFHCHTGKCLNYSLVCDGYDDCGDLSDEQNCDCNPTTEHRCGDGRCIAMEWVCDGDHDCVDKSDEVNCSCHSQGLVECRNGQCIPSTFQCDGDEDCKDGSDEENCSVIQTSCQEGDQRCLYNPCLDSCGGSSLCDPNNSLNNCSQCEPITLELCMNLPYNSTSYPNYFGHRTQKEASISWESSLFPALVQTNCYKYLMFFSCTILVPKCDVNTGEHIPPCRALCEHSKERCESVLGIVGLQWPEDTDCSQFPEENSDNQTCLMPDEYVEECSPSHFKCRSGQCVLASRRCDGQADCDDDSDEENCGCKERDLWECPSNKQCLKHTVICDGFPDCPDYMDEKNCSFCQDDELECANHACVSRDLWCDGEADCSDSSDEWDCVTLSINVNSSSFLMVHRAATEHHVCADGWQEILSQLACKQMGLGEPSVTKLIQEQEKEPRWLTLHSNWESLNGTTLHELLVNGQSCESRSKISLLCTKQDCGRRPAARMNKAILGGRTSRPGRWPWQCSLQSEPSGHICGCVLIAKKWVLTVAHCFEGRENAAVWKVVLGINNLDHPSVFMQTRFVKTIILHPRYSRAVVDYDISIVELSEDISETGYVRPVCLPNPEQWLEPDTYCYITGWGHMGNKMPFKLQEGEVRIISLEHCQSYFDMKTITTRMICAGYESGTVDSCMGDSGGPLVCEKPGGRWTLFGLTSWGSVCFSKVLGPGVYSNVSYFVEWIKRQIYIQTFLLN

[2] = target: T2, recombinant human corin wild-type (WT), Q9Y5Q5
T2 chain: T1 chain with A801R

[3] = target: human corin mutant K317E (human) (UniProt Q9Y5Q5); assay: cell-based or functional assay
[4] = target: human corin mutant R539C (human) (UniProt Q9Y5Q5); assay: cell-based or functional assay
[5] = target: human corin mutant S472G (human) (UniProt Q9Y5Q5); assay: cell-based or functional assay

- reduction in PCSK6-mediated corin activation compared with WT corin (Western blot, densitometry) (% reduction vs WT corin) [3]: 39
- reduction in PCSK6-mediated corin activation compared with WT corin (Western blot, densitometry) (% reduction vs WT corin) [4]: 62
- reduction in PCSK6-mediated corin activation compared with WT corin (Western blot, densitometry) (% reduction vs WT corin) [5]: 99
B1: recombinant human proprotein convertase subtilisin/kexin-6 (PCSK6) with a C-terminal flag tag (protein)
chain: QVRSDPQALYFNDPIWSNMWYLHCGDKNSRCRSEMNVQAAWKRGYTGKNVVVTILDDGIERNHPDLAPNYDSYASYDVNGNDYDPSPRYDASNENKHGTRCAGEVAASANNSYCIVGIAYNAKIGGIRMLDGDVTDVVEAKSLGIRPNYIDIYSASWGPDDDGKTVDGPGRLAKQAFEYGIKKGRQGLGSIFVWASGNGGREGDYCSCDGYTNSIYTISVSSATENGYKPWYLEECASTLATTYSSGAFYERKIVTTDLRQRCTDGHTGTSVSAPMVAGIIALALEANSQLTWRDVQHLLVKTSRPAHLKASDWKVNGAGHKVSHFYGFGLVDAEALVVEAKKWTAVPSQHMCVAASDKRPRSIPLVQVLRTTALTSACAEHSDQRVVYLEHVVVRTSISHPRRGDLQIYLVSPSGTKSQLLAKRLLDLSNEGFTNWEFMTVHCWGEKAEGQWTLEIQDLPSQVRNPEKQGKLKEWSLILYGTAEHPYHTFSAHQSRSRMLELSAPELEPPKAALSPSQVEVPEDEEDYTAQSTPGSANILQTSVCHPECGDKGCDGPNADQCLNCVHFSLGSVKTSRKCVSVCPLGYFGDTAARRCRRCHKGCETCSSRAATQCLSCRRGFYHHQEMNTCVTLCPAGFYADESQKNCLKCHPSCKKCVDEPEKCTVCKEGFSLARGSCIPDCEPGTYFDSELIRCGECHHTCGTCVGPGREECIHCAKNFHFHDWKCVPACGEGFYPEEMPGLPHKVCRRCDENCLSCAGSSRNCSRCKTGFTQLGTSCITNHTCSNADETFCEMVKSNRLCERKLFIQFCCRTCLLAG
- PCSK6-mediated activation cleavage (Western blot, densitometry) [1]: In controls, no activation cleavage was detected in mutant R801A lacking the cleavage site
- PCSK6-mediated activation cleavage (Western blot, densitometry) [2]: PCSK6-mediated activation cleavage was detected in corin WT and variants T555I or Q568P, but not variant T555I/Q568P
